Test results from patent publication US20250263490A1 (VIB VZW, published 2025).
Substitutions are numbered along the chain they refer to. Read-outs that look alike come from different tables or passages of the source. Values belong to the binder of their own block, whether it stands above or below them.

Experiments:
[1] = target: T1, recombinant human domain 1-3His6 of the cation-independent mannose-6-phosphate receptor (human, UniProt P11717 41-467); test: ELISA on coated antigen, 2nd of 2 repeats
T1 construct: Biotinylated (NHS-PEG4-biotin) for BLI; Glycosylated; also called hDom1-3His6; hCI-M6PRD1-D3
Method: (§1) FIGS. 4A-4B. Affinity of anti-CI-M6PR VHHs for recombinant human CI-M6PR Domain 1-3His₆ determined by ELISA. A & B. Measurements for each of the 11 anti-CI-M6PR VHHs in serial dilution binding to the coated human CI-M6PR Domain 1-3His₆ antigen. Detection was performed using an anti-VHH antibody coupled to HRP, and measured as the absorbance of the TMB substrate at 450 nm, correlating to the amount of bound VHH as plotted at the Y-axis. The Log₁₀ concentrations of the serially diluted VHHs were plotted at the X-axis. […] A & B represent replicates but using a different concentration of human CI-M6PR Domain 1-3His₆ (in (FIG. 4A): 0-0.75 μM and in (FIG. 4B): 0-1 μM).
(§2) We evaluated the affinity of the VHHs against the hDom₁₋₃His₆ using ELISA. Coated hDom₁₋₃His₆ was incubated with serially diluted VHH that was afterwards detected using an anti-VHH antibody, coupled to HRP.

[2] = target: T1, recombinant human domain 1-3His6 of the …; test: BLI exp 2, dissoc pH 7
[3] = target: T1, recombinant human domain 1-3His6 of the …; test: BLI exp 1, dissoc pH 7.4
Method: (§3) For each of the 11 anti-CI-M6PR VHHs, a biolayer interferometry (BLI) experiment was performed in which the hDom₁₋₃His₆ was biotinylated and coupled to streptavidin biosensor tips. Afterwards, the tips were incubated with serially diluted VHHs during the association phase and dissociation was performed at pH 7.4. Similarly, dissociation was performed at pH 7.0, pH 6.0 and pH 5.0 as well after regeneration of the biosensor tips. […] The anti-CI-M6PR antibody (clone 2G11) and GBP were used as positive and negative controls, respectively.
(§4) Analysis of the binding kinetics was performed using an Octet Red96 (FortéBio) device with Streptavidin SA Biosensor tips (VWR 733-2145). Therefore, 1 mL of human domain₁₋₃His₆ (0.5 mg/mL in 50 mM MES, 150 mM NaCl, pH 6.5) was incubated at room temperature for 30 minutes with EZ-Link™ NHS-PEG4-Biotin (1 mg) (Thermo Fischer A39259) and NaHCO₃ (100 mM). Biotinylated human domain₁₋₃His₆ was purified using a Zeba spin desalting Column™ (7K MWCO, 2 mL, Thermo Fischer 89890) and 1 μg/mL was used for immobilization on the Streptavidin SA Biosensor tips. The loaded tips were dipped into a particular anti-CI-M6PR VHH solution, serially diluted in kinetics buffer (0.2M NaH₂PO₄, 0.1M Na⁺ citrate, 0.01% BSA, 0.002% Tween20, pH 7.4). This was followed by dissociation of the particular anti-CI-M6PR VHH in kinetics buffer of pH 7.4, followed by regeneration in Glycine (10 mM, pH 3) and neutralisation. Same cycle was repeated but the dissociation was performed at pH 7.0, 6.0, 5.0, 4.5 and 4.0. A reference well and reference sensors were subtracted from ligand sensors afterwards and Savitsky-Golay filtering was applied on the data. Fitting of the data was performed using a 1:1 model, grouped per pH of dissociation.

[4] = target: T1, recombinant human domain 1-3His6 of the …; test: BLI at pH 7.4, 1st of 2 repeats
Method: as §3, §4

[5] = target: T1, recombinant human domain 1-3His6 of the …; test: BLI exp 1, dissoc pH 6
Method: as §3, §4

[6] = target: T1, recombinant human domain 1-3His6 of the …; test: ELISA on coated antigen, 1st of 2 repeats
Method: as §1, §2

[7] = target: T1, recombinant human domain 1-3His6 of the …; test: BLI exp 1, dissoc pH 5
Method: as §3, §4

[8] = target: T1, recombinant human domain 1-3His6 of the …; test: BLI exp 2, dissoc pH 6
Method: as §3
(§5) Analysis of the binding kinetics was performed using an Octet Red96 (FortéBio) device with Streptavidin SA Biosensor tips (VWR, 733-2145). To this end, 1 mL of hCI-M6PR_D1-D3 (0.5 mg/mL in 50 mM MES, 150 mM NaCl, pH 6.5) was incubated at room temperature for 30 minutes with a two-fold molar excesses of EZ-Link™ NHS-PEG₄-Biotin (Thermo Fischer, A39259) and NaHCO₃ (100 mM, pH 8.3). Biotinylated hCIMPR_D1-D3 was purified using a Zeba spin desalting column (Thermo Fischer, 89890) and protein concentration was calculated by measuring the absorbance at 280 nm (extinction coefficient 50320 M¹ cm⁻¹). Two-fold biotin-labelled antigen was loaded on the tips (2.5 μg/mL) and subsequently dipped into a particular anti-CI-M6PR VHH-containing solution (ranging from 0-100 nM). Serial VHH dilutions were made in kinetics buffer (0.2 M Na₂HPO₄, 0.1 M Na⁺ citrate, 0.01% BSA, 0.002% Tween20, pH 7.4). After association (100 sec), dissociation was conducted (500 sec) for each anti-CI-M6PR VHH in the kinetics buffer, followed by biosensor regeneration in glycine (10 mM, pH 3) and neutralisation. The same cycle was repeated with dissociation performed in kinetics buffer of pH 7.0, 6.5, 6.0, 5.5, and 5.0.
(§6) A reference well and reference sensors were subtracted from ligand sensors afterwards and Savitsky-Golay filtering was applied on the data. Fitting of the data was performed using a 1:1 model, grouped per dissociation pH.

[9] = target: T2, recombinant mouse domain 1-3His6 of CI-M6PR (mouse, UniProt Q07113 36-418); test: ELISA: coated mouse CI-M6PR Domain 1-3His6, serially diluted VHH, anti-VHH-HRP, TMB, Abs 450 nm; sigmoidal regression [table at the right]
T2 construct: Genbank NM_010515.2); Range includes the signal peptide; also called mDom1-3His6; mCI-M6PRD1-D3
T2 sequence (Q07113 other isoform, or with tags, fused parts or gaps): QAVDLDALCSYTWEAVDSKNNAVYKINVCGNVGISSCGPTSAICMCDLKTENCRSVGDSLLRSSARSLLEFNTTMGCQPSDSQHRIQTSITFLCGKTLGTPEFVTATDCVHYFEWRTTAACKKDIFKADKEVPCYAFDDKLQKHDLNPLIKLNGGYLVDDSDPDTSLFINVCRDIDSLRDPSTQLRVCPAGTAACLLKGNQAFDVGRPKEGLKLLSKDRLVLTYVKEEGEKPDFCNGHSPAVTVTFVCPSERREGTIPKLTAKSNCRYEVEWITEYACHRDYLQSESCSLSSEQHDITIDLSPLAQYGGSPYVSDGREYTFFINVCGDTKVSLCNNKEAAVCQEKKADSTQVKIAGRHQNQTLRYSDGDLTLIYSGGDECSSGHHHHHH
Method: FIGS. 5A-5B. Affinity of anti-CI-M6PR VHHs for recombinant mouse CI-M6PR Domain 1-3His₆ determined by ELISA. (FIG. 5A) Measurement for each of the 11 anti-CI-M6PR VHHs in serial dilution binding to the coated mouse antigen. Detection was performed using an anti-VHH antibody coupled to HRP, and measured as the absorbance of the TMB substrate at 450 nm, correlating to the amount of bound VHH as plotted at the Y-axis. The Log₁₀ concentrations of the serially diluted VHHs were plotted at the X-axis.
To evaluate the cross-reactivity of the anti-CI-M6PR nanobodies between the human and mouse CI-M6PR domain 1-3His₆ antigen, ELISA was performed with the eleven serially diluted anti-CI-M6PR nanobodies. […] By performing sigmoidal regression on the derived absorbance curves, half-maximal effective concentration (EC₅₀) values of each VHH were acquired, representing the required concentration to occupy 50% of the coated antigen. As a negative control, GBP was included in the assay.

[10] = target: T1, recombinant human domain 1-3His6 of the …; test: BLI exp 2, dissoc pH 5
Method: as §3, §5, §6

[11] = target: T1, recombinant human domain 1-3His6 of the …; test: BLI exp 1, dissoc pH 7
Method: as §3, §4

[12] = target: T1, recombinant human domain 1-3His6 of the …; test: in-tandem competitive BLI, biotinylated hDom1-3His6 on SA sensors, purified VHH at 400 nM
[13] = target: T1, recombinant human domain 1-3His6 of the …; test: ELISA on coated antigen (100 ng), anti-VHH-HRP, A450
Method: (§7) To determine the effect of site-directed mutations, an ELISA was performed. To this end, 100 ng of each successfully purified mutant was coated per well on Nunc Maxisorp plates in 50 mM MES, 150 mM NaCl, pH 6.5 buffer overnight at 4° C. […] Coating-only controls were included for background correction. […] Reactions were stopped after five minutes using a 2N H₂SO₄ solution and plates were read at 450 nm, with a 655 nm background correction. Data were analyzed using the GraphPad Prism 9 software.

[14] = target: T1, recombinant human domain 1-3His6 of the …; test: as above; remark: listed apart in the source
Method: as §7

B2: humanized VHH8 variant VHH8 h2 (VHH)
VHH: DVQLVESGGGLVQPGGSLRLSCAASGRTFNTYNWGWFRQAPGKEREFVAAIRWSSSKTSYADSVKGRFTISRDNSKNTVYLQMNSLRPEDTAVYYCAASIVDFTTNPSHFGSWGQGTLVTVSS
notes: made in E. coli
binding result [12]: binds

B3: humanized VHH8 variant VHH8hWN (VHH)
VHH: B2 VHH with S75A, V79I
notes: His6-tagged, made in HEK293S
EC50 (read off the curve) [13]: ~3 nM
EC50 (read off the curve) [14]: ~3 nM

B5: humanized VHH8 variant VHH8 h1 (VHH)
VHH: B2 VHH with D1E
notes: made in E. coli
binding result [12]: binds

B6: humanized VHH7 variant VHH7 h3 (VHH)
VHH: DVQLVESGGGLVQPGGSLRLSCAASGIIFSDNRMDWYRQAPGKQREWVATLASYGWKTYADSVKGRFTISRDNTKNTVYLQMNSLRPEDTAVYYCKASSPVLNDIWGQGTLVTVSS
notes: made in E. coli
binding result [12]: binds

B8: humanized VHH7 variant VHH7 h1 (VHH)
VHH: B6 VHH with D1E, T74S
notes: made in E. coli
binding result [12]: binds

Other lines, results leading:

EC50 [1]: 0.177 nM
koff [2]: 0.0136 s⁻¹
kon [2]: 1.56e+06 M⁻¹ s⁻¹
Kd [3]: 5.3 nM
koff [3]: 0.0036 s⁻¹
kon [3]: 679000 M⁻¹ s⁻¹
Kd [4]: 5.3 nM
koff [4]: 0.0036 s⁻¹
kon [4]: 679000 M⁻¹ s⁻¹
Kd [5]: 5.96 nM
koff [5]: 0.00513 s⁻¹
kon [5]: 862000 M⁻¹ s⁻¹
EC50 [6]: 0.0608 nM
Kd [7]: 10 nM
koff [7]: 0.00746 s⁻¹
kon [7]: 745000 M⁻¹ s⁻¹
koff [8]: 0.0748 s⁻¹
kon [8]: 3.76e+06 M⁻¹ s⁻¹
EC50 [9]: 104 nM
koff [10]: 0.074 s⁻¹
kon [10]: 745000 M⁻¹ s⁻¹
Kd [11]: 24.2 nM
koff [11]: 0.0161 s⁻¹
kon [11]: 665000 M⁻¹ s⁻¹
B1: anti-CI-M6PR VHH2 (VHH)
VHH: QVQLQESGGGLVQPGGSLRLSCVFSGRTFMSYDVGWFRQAPGKERELLSSITSSSSSPYYAESVKGRFAVSRDGAKKTVYLRMNSLEPEDTAVYYCAARENWRNDWQYWGQTQVTVSS
notes: His6-tagged; made in Pichia pastoris

binding result [12]: binds
B4: humanized VHH8 variant VHH8 h3 (VHH)
VHH: B2 VHH with P14A
notes: made in E. coli

binding result [12]: binds
B7: humanized VHH7 variant VHH7 h2 (VHH)
VHH: B6 VHH with T74S
notes: made in E. coli

EC50 (read off the curve) [13]: ~0.5 nM
EC50 (read off the curve) [14]: ~0.5 nM
B9: humanized VHH7 variant VHH7hWN (VHH)
VHH: B6 VHH with T74A
notes: His6-tagged, made in HEK293S
